Tested on: Nc1nc2c(ncn2[C@@H]2O[C@H](COP(=O)(O)OP(=O)(O)OP(=O)(O)O)[C@@H](O)[C@H]2O)c(=O)[nH]1
Assay: purified protein
Settings: 42 °C, Tris buffer, MgCl2, GTP 0.05-1 mM

FlhF (Campylobacter jejuni subsp. jejuni NCTC 11168 = ATCC 700819)
Km: 75 µM
kcat: 0.0115 s⁻¹

Source: article PMC6282759, “FlhF(T368A) modulates motility in the bacteriophage carrier state of Campylobacter jejuni” (Molecular Microbiology, 2018)
